Target: Pablo, full length (pro-apoptotic Bcl-xL binding protein) (human) (UniProt Q92558)
Assay: cell-based or functional assay

Chain of UniProt Q92558 (Q92558 whole entry): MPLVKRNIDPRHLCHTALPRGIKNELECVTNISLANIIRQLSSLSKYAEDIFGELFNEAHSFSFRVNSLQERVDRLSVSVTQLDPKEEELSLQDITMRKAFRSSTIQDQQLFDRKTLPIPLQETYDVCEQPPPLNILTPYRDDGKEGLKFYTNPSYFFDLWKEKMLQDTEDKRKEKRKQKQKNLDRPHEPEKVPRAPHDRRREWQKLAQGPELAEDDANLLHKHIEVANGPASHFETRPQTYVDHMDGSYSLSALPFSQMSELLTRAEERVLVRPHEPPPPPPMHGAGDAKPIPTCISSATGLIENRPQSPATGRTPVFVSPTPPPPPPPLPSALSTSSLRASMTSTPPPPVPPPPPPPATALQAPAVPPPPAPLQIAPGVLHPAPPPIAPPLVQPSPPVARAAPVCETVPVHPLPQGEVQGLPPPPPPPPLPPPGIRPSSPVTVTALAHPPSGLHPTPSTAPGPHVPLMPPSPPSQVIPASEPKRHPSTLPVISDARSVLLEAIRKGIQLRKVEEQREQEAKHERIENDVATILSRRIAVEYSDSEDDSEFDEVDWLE

Bcl-xL-eGFP (from UniProt Q07817 1-233)
apoptotic nuclei at 48 hours post-transfection/induction (PC12-Pablo cells, Hoechst stain): 3.5%
percentage of PC12 cells that were eGFP+, 48 hours post-transfection/induction: 14%
